The target in the test is T1, ubiquitin propargylamide (UB-PA) (UniProt P0CG48 1-75, C-terminal propargylamide).
T1 construct: also called ubiquitin-propargylamide suicide probe
Kind of test: NMR chemical shift perturbation of the covalent adduct against the apo protein. Particulars: both partners purified.

B1: Cdu1(130-401), wildtype (enzyme)
chain: PVKTQEDLLPLVPEQVFVEMYEDMARRQTIEALVPAWDSDIIFKCLCYFHTLYPGLIPLETFPPATIFNFKQKIISILEDKKAVLRGEPIKGPLPICCSKENYRRHLQRTTLLPVFMWYHPTPKTLSDTMQTMKQLAIKGSVGASHWLLVIVDIQARRLVYFDSLYNYVMPPENMKKELQSFAQQLDQVYPAYDSKKFSVKIAAKEVIQRGSGSSCGAWCCQFLHWYLKDPLTDALNDLPVDSVERHENLASFVQACEAAVQDLPELSWPEA
notes: source: E. coli Rosetta 2(DE3), purified (Ni-NTA, 3C cleavage, SEC); not shown: 6xHis, N-terminal, cleaved
As to B1, the binding result was “binds”.

The values above are taken from publication PMC11527256, “Linkage-specific ubiquitin binding interfaces modulate the activity of the chlamydial deubiquitinase Cdu1 towards poly-ubiquitin substrates” (PLOS Pathogens, 2024).
